For 141 substances, amyloid nucleation score results are on record in the supplement of paper PMC12042874.

± gives the uncertainty stated by the source.

This series in a line: amyloid nucleation score (Sup35N fusion, yeast selection) (log enrichment); library NNK2; higher = more nucleation; inactive = no reads after selection. The procedure, abridged:
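Peptides of 20 random codons, each fused to Sup35N, were expressed in psi-negative yeast. Cells were induced with 100 μM copper sulfate for 24 hours and grown 7 days at 30°C on medium lacking adenine and uracil, and plasmid inserts before and after selection were Illumina-sequenced. Nucleation scores are DiMSum log enrichments of output over input reads, centred on the mode score of non-aggregating sequences, and sequences under 100 input reads were excluded.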
The substance TWRVP returned an amyloid nucleation score of 0.884 ± 0.55.

The substance SGTGKVCVVLVHKTSVQRKC came in with an amyloid nucleation score of 1.14 ± 0.3.

VFTYLSSDFYTGWTMVNHIM returned an amyloid nucleation score of -0.357 ± 0.21.

For PMMYQRLCIMFFCSTITLMI, the amyloid nucleation score was found to be 1.92 ± 0.14.

Consider EACRLYHRVVKAFGEARCSV, for which the amyloid nucleation score was 0.518 ± 0.28.

In turn, CLVYVGRVPSRIGDHRITAY gave an amyloid nucleation score of 0.966 ± 0.38.

Consider LNYRH, for which the amyloid nucleation score entry was “inactive”.

FLCRLLGSGRSHHIRVC showed an amyloid nucleation score of 0.15 ± 0.22.

YVPMQY: the amyloid nucleation score turned out to be 0.382 ± 0.53.

Substance EWDVLGLRGRANN registered an amyloid nucleation score of 1.36 ± 0.35.

The substance LYVNLRCRNYYVAVPVGDWD displayed an amyloid nucleation score of 4.9 ± 0.068.

In turn, MKRVGKFVGLGGRHVVHSRV came in with an amyloid nucleation score of 0.434 ± 0.33.

Regarding QFSSLVFAEEKMNPRMCMVR, the amyloid nucleation score is -0.294 ± 0.2.

Substance KDVCY had an amyloid nucleation score of 1.31 ± 0.23.

For FQIREVGEVLNC, the amyloid nucleation score is -0.202 ± 1.1.

The substance NVGSVKHGS had an amyloid nucleation score of 0.531 ± 0.57.

On to YNASVDVLHY, for which the amyloid nucleation score was -0.146 ± 1.

Substance RHLHYRRYKIAAKGLIVFMN showed an amyloid nucleation score of 3.95 ± 0.067.

On to MFSRIWPSSDL, for which the amyloid nucleation score was -0.324 ± 1.1.

Turning to GFGSVLIW, the amyloid nucleation score was -0.523 ± 1.

For the substance CFCQTCSLSRAKSMEEGCLR, the amyloid nucleation score is -1.08 ± 0.54.

Turning to PHKSAGGRLSMFGAKHGDMV, the amyloid nucleation score stood at 0.822 ± 0.49.

In turn, KSVWLKVGCQPPIRFEFCEM gave an amyloid nucleation score of 0.037 ± 0.49.

The substance EGLQFRCLRNSEILVCGYFS had an amyloid nucleation score of 0.466 ± 0.54.

The substance VSARGSWFLTTSAAC displayed an amyloid nucleation score of -1.29 ± 1.1.

For RDFVE, the amyloid nucleation score is -0.386 ± 0.56.

YCGTVFHGSRRECGISVRGW yielded an amyloid nucleation score of 1.19 ± 0.33.

With VKCKRCSASSFAIYVEYCCT, the amyloid nucleation score turned out to be 0.138 ± 0.17.

Substance DPSGYHVSFHSGDGGCEYC yielded an amyloid nucleation score of 2.71 ± 0.085.

As to DLYNCMHWQHVEYIMLLHGL, the amyloid nucleation score was -0.846 ± 0.35.

LSLLVSLTRTMFNLNNTCTA: the amyloid nucleation score is -0.17 ± 0.65.

For LYGIVITTLSSYCGGFLNSR, the amyloid nucleation score result was “inactive”.

CSCMKFWKFLLIRQSYKPGM displayed an amyloid nucleation score of 2.16 ± 0.18.

The substance QTVTCHNNRYVFRLSTMC came in with an amyloid nucleation score of 0.71 ± 0.41.

NEEWSFCKS: the amyloid nucleation score was -0.165 ± 1.

Regarding DEGVPSGYVTAL, the amyloid nucleation score is -0.354 ± 0.76.

The substance FRSGCQFLWHERLNNNVTNA came in with an amyloid nucleation score of 1.54 ± 0.093.

Regarding LFNGTMY, the amyloid nucleation score result is “inactive”.

Regarding EFWVLNYVITNLHWQTYSIM, the amyloid nucleation score was -1.29 ± 1.

Consider RWLVRTEKSS, for which the amyloid nucleation score came to 2.03 ± 0.1.

The substance NARITVLGSHPWLCPGKVSV had an amyloid nucleation score of 1.06 ± 0.54.

Substance MQFLFK displayed an amyloid nucleation score of -1.33 ± 1.1.

Regarding GFLIKWNNGVLVLVSAMMCI, the amyloid nucleation score was -0.598 ± 0.4.

On to LVGHYSDRDYVEYARRDCAG, for which the amyloid nucleation score turned out to be 0.252 ± 0.8.

On to SIYVSALDGMYSGGRDLWKR, for which the amyloid nucleation score is 0.601 ± 0.48.

As for FFRCVLITPD, the amyloid nucleation score came to 0.179 ± 0.53.

The substance HVSTSLYTIGSSVSWGMFQG registered an amyloid nucleation score of 0.897 ± 0.47.

PCIGSQFFYSFGGLIK showed an amyloid nucleation score of -0.736 ± 0.35.

LCSKGYIMRSAGCRVDCSGV gave an amyloid nucleation score of -0.58 ± 0.41.

Turning to SVNASGT, the amyloid nucleation score was -0.114 ± 0.8.

Consider IVGELVMTFKSVMAARTPFH, for which the amyloid nucleation score was 4.19 ± 0.064.

As to YKCDVICCFGIWVLMFEN, the amyloid nucleation score is 5.25 ± 0.074.

For the substance LVISM, the amyloid nucleation score was found to be 0.348 ± 0.46.

KGGQK displayed an amyloid nucleation score of -0.493 ± 0.34.

In the case of VVSTESVNVI, the amyloid nucleation score is 0.889 ± 0.27.

With GKITVRDISYVRIWRDSLLY, the amyloid nucleation score is 3.25 ± 0.1.

Consider HEPGLPVRSCNVGRHSLSIL, for which the amyloid nucleation score worked out at 0.522 ± 0.42.

Substance IRGDNWMVCTTYTNSSFLRS yielded an amyloid nucleation score of 0.215 ± 0.57.

Take GEQLLED: the amyloid nucleation score entry was “inactive”.

On to IINWPQLFKVASWTPSKTPP, for which the amyloid nucleation score was -0.07 ± 0.76.

The substance CVVKDSSTVFM displayed an amyloid nucleation score of -1.9 ± 1.

In turn, FIDRMKMLWGLKSWDFQCHW registered an amyloid nucleation score of 0.362 ± 0.45.

In turn, TVVVYIRYRTPMRMVTPPSQ showed an amyloid nucleation score of 0.986 ± 0.21.

For the substance YGFDLKSGQSADASCASVSG, the amyloid nucleation score is 0.586 ± 0.31.

Consider RAQRLP, for which the amyloid nucleation score was -0.241 ± 0.55.

In the case of SCDVMIRYLSLGTLSYVRAV, the amyloid nucleation score is -0.032 ± 1.1.

Substance RACADGTSEPNAVALCLNAV came in with an amyloid nucleation score of 0.832 ± 0.43.

In turn, DSISFNPYRMLRDNYLLHVC came in with an amyloid nucleation score of 1.9 ± 0.13.

Substance NTNASDWRGAMLLSCMRFYS had an amyloid nucleation score of -0.257 ± 0.42.

HAMPVYRAEFTLISTIL registered an amyloid nucleation score of 0.268 ± 0.32.

YFWLVFLKKHRQGLEGKGGW registered an amyloid nucleation score of 0.004 ± 0.62.

The substance LNIQFGGSLHWKSGGVATEA gave an amyloid nucleation score of 0.103 ± 0.28.

In turn, KIFFGNNRF came in with an amyloid nucleation score of 3.4 ± 0.13.

The substance GSCNRKRHDVAYHLKCGMVA registered an amyloid nucleation score of 1.09 ± 0.14.

For the substance TDECWIGYFNSSAI, the amyloid nucleation score was -0.053 ± 1.

Turning to RGCGFRIDVGKRWRNRIKSV, the amyloid nucleation score entry was “inactive”.

Turning to MRSYRLYLIPFHFLGWLINS, the amyloid nucleation score result is “inactive”.

CFSCVFIMDCCRH had an amyloid nucleation score of 7.954 ± 0.062.

For the substance SKMPP, the amyloid nucleation score worked out at 0.147 ± 1.1.

Take KVGDQLQLRTSATV: the amyloid nucleation score was 0.459 ± 0.22.

The substance LISRL showed an amyloid nucleation score of -0.54 ± 1.1.

On to FFRVQINEGDQGYQSQYF, for which the amyloid nucleation score result was “inactive”.

For the substance RCGSHMNLRYISAR, the amyloid nucleation score worked out at 4.398 ± 0.04.

As for VLVVSRA, the amyloid nucleation score is -0.514 ± 0.45.

Take ACLHFVSYSELAVFDFSFGK: the amyloid nucleation score was 6.89 ± 0.079.

YYEMFCYSCPSDRPGISNDA returned an amyloid nucleation score of 8.827 ± 0.035.

MVCKLTFRRRCPMNRSRHQV had an amyloid nucleation score of 0.469 ± 0.43.

For the substance TVSPPLVVFAFRISLRSLRP, the amyloid nucleation score is 1.12 ± 0.4.

As to SYYFQAFDYKFLSMVIDAYG, the amyloid nucleation score is 7.085 ± 0.043.

In turn, RNRSGVMW registered an amyloid nucleation score of 0.276 ± 1.

With SSYDLITIKEFIKSGRVK, the amyloid nucleation score was -0.119 ± 0.35.

For WNTISRLCDLWLRVAYGSLV, the amyloid nucleation score amounted to 0.461 ± 0.65.

On to YLPTGELIHHYKTSIVLDSA, for which the amyloid nucleation score is -0.458 ± 0.41.

Substance ITIPVNLPLHFLYSGQYHVA displayed an amyloid nucleation score of -0.307 ± 0.74.

Substance CLDLLWHSWASYLLAGALWW returned an amyloid nucleation score of 0.94 ± 0.74.

For VSHSSIWSGSLKKSVSCDHV, the amyloid nucleation score entry was “inactive”.

QIRAPHGGYVYYAGVATYSN showed an amyloid nucleation score of -0.206 ± 1.1.

Regarding QHRMDTDTNYFDKDVGHFIS, the amyloid nucleation score was -0.984 ± 0.32.

In turn, KILGWT returned an amyloid nucleation score of 0.836 ± 0.21.

VVGSFFCQNMKHLYRELRQS: the amyloid nucleation score result was “inactive”.

For SSPLVNRFPEGVYMNCK, the amyloid nucleation score was -0.15 ± 0.49.

ARNTDNPMSNGPYIWIGPY returned an amyloid nucleation score of 1.21 ± 0.2.

For DCSNDRKIYYNWAIRVVRTD, the amyloid nucleation score was 0.076 ± 0.35.

As for RLRDRNDHVLRCSHYWIQDW, the amyloid nucleation score amounted to 0.956 ± 0.57.

As to KVMGYGYA, the amyloid nucleation score is -1.02 ± 0.55.

The substance NIFRRLLSIIIVFDQDRRKM yielded an amyloid nucleation score of -1.01 ± 1.1.

For the substance SISRFSFIRNTVGRD, the amyloid nucleation score stood at 0.637 ± 0.37.

As to QLNVSLNRLFLCGGSAELPS, the amyloid nucleation score came to 7.55 ± 0.076.

In turn, VEVYTVSSYVDYVYPDCRGV showed an amyloid nucleation score of 0.418 ± 0.62.

Take WWTIIICNWSVSKGQDDNRA: the amyloid nucleation score came to 7.238 ± 0.059.

With LFLHVSGNAYGNNCRLSGPL, the amyloid nucleation score came to 0.369 ± 0.22.

Regarding CTQVMTERV, the amyloid nucleation score is -0.091 ± 0.32.

With PDWLCEVKRIYELIGYMALI, the amyloid nucleation score turned out to be 0.41 ± 0.41.

The substance IHNKWNKMYDRPYLIKIVAS gave an amyloid nucleation score of -0.37 ± 0.36.

Substance LVWRDV registered an amyloid nucleation score of 0.729 ± 0.51.

Take DGVSCSRVNAVVYARLSQMG: the amyloid nucleation score came out at 1.3 ± 0.23.

Substance RCYVFKLSFGDTQCELFRIT gave an amyloid nucleation score of 6.406 ± 0.049.

The substance LVKLEYALSVFRENSGSNLN showed an amyloid nucleation score of 1.07 ± 0.3.

On to LGFAMWFTPRFCFTVYNSYD, for which the amyloid nucleation score is -0.422 ± 1.

Substance TCFEEFLQKFMYCATFMKKM displayed an amyloid nucleation score of -0.403 ± 0.78.

Consider WASIV, for which the amyloid nucleation score came to 0.049 ± 0.8.

Substance YAEHYWHLDNRTDWGIKEGY registered an amyloid nucleation score of -0.78 ± 0.61.

SRRLCVTFAVFGSHKVLLS: the amyloid nucleation score entry was “inactive”.

RSNDCDDLMDHVLWGYETYR yielded an amyloid nucleation score of 1.08 ± 0.66.

ISVGRSYSV came in with an amyloid nucleation score of 0.694 ± 0.24.

SVCLSSYFHCKRSVMWFYKV yielded an amyloid nucleation score of -0.363 ± 0.74.

In the case of CAFYDYGKALPRGNFRLSKM, the amyloid nucleation score was -0.208 ± 1.

In turn, DVSESRSTVDGSDNEGWLTD yielded an amyloid nucleation score of 0.299 ± 0.42.

LGMRLFRNVCYGLPSRSNRR returned an amyloid nucleation score of 1.64 ± 0.41.

The substance CSVVTNGLLNMSSFPHVFCM came in with an amyloid nucleation score of 1.79 ± 0.11.

Take VVRQTVSDCVQASTRSQLLK: the amyloid nucleation score was found to be 0.522 ± 0.35.

Regarding RGFNGSLR, the amyloid nucleation score worked out at 0.552 ± 0.4.

ECYETRTSMEY: the amyloid nucleation score is -0.102 ± 0.56.

With TSHSCGYLWCSLV, the amyloid nucleation score stood at 0.211 ± 0.61.

Substance CGVVSLCSGWSLMYDRGWWG yielded an amyloid nucleation score of 10.2 ± 0.054.

Regarding ATLGTVRCYRKRAIFFEGHL, the amyloid nucleation score is 1.17 ± 0.45.

FAQPHGCNKMCFCSLRFQYL gave an amyloid nucleation score of 3.21 ± 0.12.

PFCPFSEAVWMSTITLQHEG displayed an amyloid nucleation score of -0.054 ± 0.32.

For STAKYVYYTLLR, the amyloid nucleation score was 0.204 ± 0.65.

As for KNLRWCQGFSRGIECRSLMV, the amyloid nucleation score is -0.639 ± 0.55.

On to LPQMNMGFLGSLNFEGMKRA, for which the amyloid nucleation score was 1.47 ± 0.2.
